According to patent US20220281936A1:
Blank lines part the entries; values can stand above or below the binder they belong to.

Biological target: IL12 receptor on pre-activated mouse CD8+ T cells (mouse) (UniProt Q60837)
Test: cell-based or functional assay

EC50 of STAT4 phosphorylation in pre-activated mouse CD8+ T cells (flow cytometry): 16.3 pM
B1: Mouse IL12 (unmodified) (ligand)
chain 1: RVIPVSGPARCLSQSRNLLKTTDDMVKTAREKLKHYSCTAEDIDHEDITRDQTSTLKTCLPLELHKNESCLATRETSSTTRGSCLPPQKTSLMMTLCLGSIYEDLKMYQTEFQAINAALQNHNHQQIILDKGMLVAIDELMQSLNHNGETLRQKPPVGEADPYRVKMKLCILLHAFSTRVVTINRVMGYLSSA
chain 2: MWELEKDVYVVEVDWTPDAPGETVNLTCDTPEEDDITWTSDQRHGVIGSGKTLTITVKEFLDAGQYTCHKGGETLSHSHLLLHKKENGIWSTEILKNFKNKTFLKCEAPNYSGRFTCSWLVQRNMDLKFNIKSSSSSPDSRAVTCGMASLSAEKVTLDQRDYEKYSVSCQEDVTCPTAEETLPIELALEARQQNKYENYSTSFFIRDIIKPDPPKNLQMKPLKNSQVEVSWEYPDSWSTPHSYFSLKFFVRIQRKKEKMKETEEGCNQKGAFLVEKTSTEVQCKGGNVCVQAQDRYYNSSCSKWACVPCRVRS

EC50 of STAT4 phosphorylation in pre-activated mouse CD8+ T cells, fold against unmodified IL12: 80 fold
fold decrease in STAT4 phosphorylation in pre-activated mouse CD8+ T cells, noncleaved construct against IL12 (FIG. 3C): 80 fold
B2: IL12Rβ1-LS-IL12 (protein)
chain 1: QLGASGPGDGCCVEKTSFPEGASGSPLGPRNLSCYRVSKTDYECSWQYDGPEDNVSHVLWCCFVPPNHTHTGQERCRYFSSGPDRTVQFWEQDGIPVLSKVNFWVESRLGNRTMKSQKISQYLYNWTKTTPPLGHIKVSQSHRQLRMDWNVSEEAGAEVQFRRRMPTTNWTLGDCGPQVNSGSGVLGDIRGSMSESCLCPSENMAQEIQIRRRRRLSSGAPGGPWSDWSMPVCVPPEVLPQAGLLSGRSDNHGGGSGGGSRVIPVSGPARCLSQSRNLLKTTDDMVKTAREKLKHYSCTAEDIDHEDITRDQTSTLKTCLPLELHKNESCLATRETSSTTRGSCLPPQKTSLMMTLCLGSIYEDLKMYQTEFQAINAALQNHNHQQIILDKGMLVAIDELMQSLNHNGETLRQKPPVGEADPYRVKMKLCILLHAFSTRVVTINRVMGYLSSAHHHHHH
chain 2: B1 chain 2

EC50 of STAT4 phosphorylation in pre-activated mouse CD8+ T cells, fold against unmodified IL12: 80 fold
fold decrease in STAT4 phosphorylation in pre-activated mouse CD8+ T cells, noncleaved construct against IL12 (FIG. 3C): 80 fold
B3: IL12Rβ1-VP-IL12 (protein, part only; not given: IL12Rβ1 mask domains and linker, part only)
chain, part: VPLSLYSRVIPVSGPARCLSQSRNLLKTTDDMVKTAREKLKHYSCTAEDIDHEDITRDQTSTLKTCLPLELHKNESCLATRETSSTTRGSCLPPQKTSLMMTLCLGSIYEDLKMYQTEFQAINAALQNHNHQQIILDKGMLVAIDELMQSLNHNGETLRQKPPVGEADPYRVKMKLCILLHAFSTRVVTINRVMGYLSSA
chain: B1 chain 2
